The text below walks through data of paper PMC4746669, “Attenuation of ligand-induced activation of angiotensin II type 1 receptor signaling by the type 2 receptor via protein kinase C” (Scientific Reports, 2016).

First the molecules themselves.
B1: FLAG-AT2R-CFP (angiotensin II type 2 receptor) [human] / HA-AT1R-YFP (angiotensin II type 1 receptor) [human] (parent)
chain 1: MKGNSTLATTSKNITSGLHFGLVNISGNNESTLNCSQKPSDKHLDAIPILYYIIFVIGFLVNIVVVTLFCCQKGPKKVSSIYIFNLAVADLLLLATLPLWATYYSYRYDWLFGPVMCKVFGSFLTLNMFASIFFITCMSVDRYQSVIYPFLSQRRNPWQASYIVPLVWCMACLSSLPTFYFRDVRTIEYLGVNACIMAFPPEKYAQWSAGIALMKNILGFIIPLIFIATCYFGIRKHLLKTNSYGKNRITRDQVLKMAAAVVLAFIICWLPFHVLTFLDALAWMGVINSCEVIAVIDLALPFAILLGFTNSCVNPFLYCFVGNRFQQKLRSVFRVPITWLQGKRESMSCRKSSSLREMETFVS
chain 2: MILNSSTEDGIKRIQDDCPKAGRHNYIFVMIPTLYSIIFVVGIFGNSLVVIVIYFYMKLKTVASVFLLNLALADLCFLLTLPLWAVYTAMEYRWPFGNYLCKIASASVSFNLYASVFLLTCLSIDRYLAIVHPMKSRLRRTMLVAKVTCIIIWLLAGLASLPAIIHRNVFFIENTNITVCAFHYESQNSTLPIGLGLTKNILGFLFPFLIILTSYTLIWKALKKAYEIQKNKPRNDDIFKIIMAIVLFFFFSWIPHQIFTFLDVLIQLGIIRDCRIADIVDTAMPITICIAYFNNCLNPLFYGFLGKKFKRYFLQLLKYIPPKAKSHSNLSTKMSTLSYRPSDNVSSSTKKPAPCFEVE

Variants of B1 are the subject of the assay. Description: FRET fluorescence microscopy in live HeLa cells (corrected FRET, FRETC). The note with it: with HA-AT1R-YFP (angiotensin II type 1 receptor) [human]; value read at the end of the time course (about 50 min after AII stimulation at time 0); HeLa cells 24 h after transfection; n = 4; parent: 1.3; read off a ….
As to chain 1 S352A S353A S354A, the response is 0.97 -fold.
